Assay [1] deals with PKR (Homo sapiens) (UniProt P19525). Kind of assay: analytical ultracentrifugation. The settings on record: cited from earlier work.
Assay [2] shares this target. Particulars: cited from earlier work.
For assay [3], the target named is phosphorylated monomeric PKR (pPKRm) (human) (UniProt P19525). Kind of assay: AUC.

Our source for the Kd values is paper PMC2819637.

In general, Kd refers to a measure of binding affinity in units of concentration.

Values joined by “and” are separate entries in the source; they are usually repeats but may differ in a detail not shown here. Identical values can stand only once. Like-named read-outs stand apart in the source and are kept apart here.

PKR (from UniProt P19525): the Kd with PKR (Homo sapiens) [1] is 0.95 µM; with PKR (Homo sapiens) [2], 500 µM and 450 µM. Regarding “phosphorylated monomeric PKR (pPKRm) (from UniProt P19525 1-551) (enzyme)”, the Kd in assay [3] worked out at 473 µM.
